Patent publication US20200317768A1 (published 2020)

T1: cynomolgus monkey FcγRIIa2 extracellular domain, His-tagged (cynomolgus monkey)
T1 construct: also called cyno FcgRIIa2; cynoFcγRIIa2; not shown: His-tag added to the C-terminus
T1 chain: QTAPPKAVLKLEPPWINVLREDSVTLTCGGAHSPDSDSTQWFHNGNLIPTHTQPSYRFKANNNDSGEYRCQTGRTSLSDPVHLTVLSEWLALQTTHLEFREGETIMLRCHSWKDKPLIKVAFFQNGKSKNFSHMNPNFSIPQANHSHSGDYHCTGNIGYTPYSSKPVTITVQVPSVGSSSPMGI

T2: human FcγRIIaH extracellular domain, His-tagged (human, UniProt P12318 34-217)
T2 construct: also called human FcgRIIaH; FcγRIIa (type H); not shown: His-tag added to the C-terminus
T2 sequence: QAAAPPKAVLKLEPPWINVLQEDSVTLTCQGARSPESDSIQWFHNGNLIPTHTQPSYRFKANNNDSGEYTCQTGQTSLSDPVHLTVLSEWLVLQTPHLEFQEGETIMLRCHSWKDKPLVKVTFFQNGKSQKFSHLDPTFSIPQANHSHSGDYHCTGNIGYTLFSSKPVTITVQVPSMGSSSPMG


How the values were obtained:
Assay in all cases: SPR (BIACORE), antibody captured, FcγR as analyte, 25°C
[1] = biological target: T1, cynomolgus monkey FcγRIIa2 …
[2] = biological target: T2, human FcγRIIaH extracellular domain, …
[3] = biological target: T3, human FcγRIIIaV extracellular domain, His-tagged (human, UniProt P08637 17-208)
T3 construct: also called human FcgRIIIaV; not shown: His-tag added to the C-terminus
T3 sequence (P08637 17-208 F176V): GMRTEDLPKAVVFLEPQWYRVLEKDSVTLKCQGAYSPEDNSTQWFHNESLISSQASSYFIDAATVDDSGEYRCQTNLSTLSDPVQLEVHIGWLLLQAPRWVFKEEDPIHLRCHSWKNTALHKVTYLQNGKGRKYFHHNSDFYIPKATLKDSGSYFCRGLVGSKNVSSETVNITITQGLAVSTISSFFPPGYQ

Binder | Kd [1] [nM] | Kd [2] [nM] | Kd [3] [nM]
MS1032LO06-SG1 (M103205H795-SG1/M103202L889-SK1) (antibody, human IgG1, kappa, Anti-latent myostatin antibody; Parent of the Fc variants; copies: 2 + 2) heavy: not shown light: DIVMTQSPATLSLSPGERATLSCTSSQSVYHANWLSWFQQKPGQPPKLLIYWASTLAYGVPSRFSGSGSGTDFTLTISSLQPEDAATYYCAGGYGGGRYAFGQGTKVEIKRTVAAPSVFIFPPSDEQLKSGTASVVCLLNNFYPREAKVQWKVDNALQSGNSQESVTEQDSKDSTYSLSSTLTLSKADYEKHKVYACEVTHQGLSSPVTKSFNRGEC | 5100 | 690 | 810
M103205H795-MY265/M103202L889-SK1 (antibody, human IgG1, kappa, copies: 2 + 2) heavy: QVTLKESGPVLVKPTETLTLTCTVSGIDLSHDDISWVRQAPGKGLEWVGIISYAGSTYYASWAKGRLTISKDTSKNQVVLTMTNMDPVDTATYYCARGVPAYSHGGDLWGQGTLVTVSSASTKGPSVFPLAPSSKSTSGGTAALGCLVKDYFPEPVTVSWNSGALTSGVHTFPAVLQSSGLYSLSSVVTVPSSSLGTQTYICNVNHKPSNTKVDKKVEPKSCDKTHTCPPCPAPELLTGPSVFLFPPKPKDTLMISRTPEVTCVVVDVSDEDPEVKFNWYVDGVEVHNAKTKPREEQYNSTYRVVSVLTVLHQDWLNGKEYKCKVSNKALPKPIEKTISKAKGQPREPQVYTLPPSREEMTKNQVSLTCLVKGFYPSDIAVEWESNGQPENNYKTTPPVLDSDGSFFLYSKLTVDKSRWQQGNVFSCSVMHEALHNHYTQKSLSLSP light: DIVMTQSPATLSLSPGERATLSCTSSQSVYHANWLSWFQQKPGQPPKLLIYWASTLAYGVPSRFSGSGSGTDFTLTISSLQPEDAATYYCAGGYGGGRYAFGQGTKVEIKRTVAAPSVFIFPPSDEQLKSGTASVVCLLNNFYPREAKVQWKVDNALQSGNSQESVTEQDSKDSTYSLSSTLTLSKADYEKHKVYACEVTHQGLSSPVTKSFNRGEC | 1900 | 210 | 54000
M103205H795-MY201/M103202L889-SK1 (antibody, human IgG1, kappa, Fc variant G236N/H268D/A330K (EU numbering) of SG1; also called MS1032LO06-MY201; copies: 2 + 2) heavy: QVTLKESGPVLVKPTETLTLTCTVSGIDLSHDDISWVRQAPGKGLEWVGIISYAGSTYYASWAKGRLTISKDTSKNQVVLTMTNMDPVDTATYYCARGVPAYSHGGDLWGQGTLVTVSSASTKGPSVFPLAPSSKSTSGGTAALGCLVKDYFPEPVTVSWNSGALTSGVHTFPAVLQSSGLYSLSSVVTVPSSSLGTQTYICNVNHKPSNTKVDKKVEPKSCDKTHTCPPCPAPELLNGPSVFLFPPKPKDTLMISRTPEVTCVVVDVSDEDPEVKFNWYVDGVEVHNAKTKPREEQYNSTYRVVSVLTVLHQDWLNGKEYKCKVSNKALPKPIEKTISKAKGQPREPQVYTLPPSREEMTKNQVSLTCLVKGFYPSDIAVEWESNGQPENNYKTTPPVLDSDGSFFLYSKLTVDKSRWQQGNVFSCSVMHEALHNHYTQKSLSLSP light: DIVMTQSPATLSLSPGERATLSCTSSQSVYHANWLSWFQQKPGQPPKLLIYWASTLAYGVPSRFSGSGSGTDFTLTISSLQPEDAATYYCAGGYGGGRYAFGQGTKVEIKRTVAAPSVFIFPPSDEQLKSGTASVVCLLNNFYPREAKVQWKVDNALQSGNSQESVTEQDSKDSTYSLSSTLTLSKADYEKHKVYACEVTHQGLSSPVTKSFNRGEC | 1400 | 910 | 24000
M103205H795-MY261/M103202L889-SK1 (antibody, human IgG1, kappa, copies: 2 + 2) heavy: QVTLKESGPVLVKPTETLTLTCTVSGIDLSHDDISWVRQAPGKGLEWVGIISYAGSTYYASWAKGRLTISKDTSKNQVVLTMTNMDPVDTATYYCARGVPAYSHGGDLWGQGTLVTVSSASTKGPSVFPLAPSSKSTSGGTAALGCLVKDYFPEPVTVSWNSGALTSGVHTFPAVLQSSGLYSLSSVVTVPSSSLGTQTYICNVNHKPSNTKVDKKVEPKSCDKTHTCPPCPAPELLHGPSVFLFPPKPKDTLMISRTPEVTCVVVDVSDEDPEVKFNWYVDGVEVHNAKTKPREEQYNSTYRVVSVLTVLHQDWLNGKEYKCKVSNKALPKPIEKTISKAKGQPREPQVYTLPPSREEMTKNQVSLTCLVKGFYPSDIAVEWESNGQPENNYKTTPPVLDSDGSFFLYSKLTVDKSRWQQGNVFSCSVMHEALHNHYTQKSLSLSP light: DIVMTQSPATLSLSPGERATLSCTSSQSVYHANWLSWFQQKPGQPPKLLIYWASTLAYGVPSRFSGSGSGTDFTLTISSLQPEDAATYYCAGGYGGGRYAFGQGTKVEIKRTVAAPSVFIFPPSDEQLKSGTASVVCLLNNFYPREAKVQWKVDNALQSGNSQESVTEQDSKDSTYSLSSTLTLSKADYEKHKVYACEVTHQGLSSPVTKSFNRGEC | 4000 | 240 | 11000
M103205H795-MY264/M103202L889-SK1 (antibody, human IgG1, kappa, copies: 2 + 2) heavy: QVTLKESGPVLVKPTETLTLTCTVSGIDLSHDDISWVRQAPGKGLEWVGIISYAGSTYYASWAKGRLTISKDTSKNQVVLTMTNMDPVDTATYYCARGVPAYSHGGDLWGQGTLVTVSSASTKGPSVFPLAPSSKSTSGGTAALGCLVKDYFPEPVTVSWNSGALTSGVHTFPAVLQSSGLYSLSSVVTVPSSSLGTQTYICNVNHKPSNTKVDKKVEPKSCDKTHTCPPCPAPELLLGPSVFLFPPKPKDTLMISRTPEVTCVVVDVSDEDPEVKFNWYVDGVEVHNAKTKPREEQYNSTYRVVSVLTVLHQDWLNGKEYKCKVSNKALPKPIEKTISKAKGQPREPQVYTLPPSREEMTKNQVSLTCLVKGFYPSDIAVEWESNGQPENNYKTTPPVLDSDGSFFLYSKLTVDKSRWQQGNVFSCSVMHEALHNHYTQKSLSLSP light: DIVMTQSPATLSLSPGERATLSCTSSQSVYHANWLSWFQQKPGQPPKLLIYWASTLAYGVPSRFSGSGSGTDFTLTISSLQPEDAATYYCAGGYGGGRYAFGQGTKVEIKRTVAAPSVFIFPPSDEQLKSGTASVVCLLNNFYPREAKVQWKVDNALQSGNSQESVTEQDSKDSTYSLSSTLTLSKADYEKHKVYACEVTHQGLSSPVTKSFNRGEC | 5500 | 1500 | 64000

Now from value to binder:

Kd [1] [nM] | Kd [2] [nM] | Kd [3] [nM] | Binder
3700 | 910 | 3000 | M103205H795-MY260/M103202L889-SK1 (antibody, human IgG1, kappa, copies: 2 + 2) heavy: QVTLKESGPVLVKPTETLTLTCTVSGIDLSHDDISWVRQAPGKGLEWVGIISYAGSTYYASWAKGRLTISKDTSKNQVVLTMTNMDPVDTATYYCARGVPAYSHGGDLWGQGTLVTVSSASTKGPSVFPLAPSSKSTSGGTAALGCLVKDYFPEPVTVSWNSGALTSGVHTFPAVLQSSGLYSLSSVVTVPSSSLGTQTYICNVNHKPSNTKVDKKVEPKSCDKTHTCPPCPAPELLMGPSVFLFPPKPKDTLMISRTPEVTCVVVDVSDEDPEVKFNWYVDGVEVHNAKTKPREEQYNSTYRVVSVLTVLHQDWLNGKEYKCKVSNKALPKPIEKTISKAKGQPREPQVYTLPPSREEMTKNQVSLTCLVKGFYPSDIAVEWESNGQPENNYKTTPPVLDSDGSFFLYSKLTVDKSRWQQGNVFSCSVMHEALHNHYTQKSLSLSP light: DIVMTQSPATLSLSPGERATLSCTSSQSVYHANWLSWFQQKPGQPPKLLIYWASTLAYGVPSRFSGSGSGTDFTLTISSLQPEDAATYYCAGGYGGGRYAFGQGTKVEIKRTVAAPSVFIFPPSDEQLKSGTASVVCLLNNFYPREAKVQWKVDNALQSGNSQESVTEQDSKDSTYSLSSTLTLSKADYEKHKVYACEVTHQGLSSPVTKSFNRGEC
1700 | 140 | 5000 | M103205H795-MY262/M103202L889-SK1 (antibody, human IgG1, kappa, copies: 2 + 2) heavy: QVTLKESGPVLVKPTETLTLTCTVSGIDLSHDDISWVRQAPGKGLEWVGIISYAGSTYYASWAKGRLTISKDTSKNQVVLTMTNMDPVDTATYYCARGVPAYSHGGDLWGQGTLVTVSSASTKGPSVFPLAPSSKSTSGGTAALGCLVKDYFPEPVTVSWNSGALTSGVHTFPAVLQSSGLYSLSSVVTVPSSSLGTQTYICNVNHKPSNTKVDKKVEPKSCDKTHTCPPCPAPELLVGPSVFLFPPKPKDTLMISRTPEVTCVVVDVSDEDPEVKFNWYVDGVEVHNAKTKPREEQYNSTYRVVSVLTVLHQDWLNGKEYKCKVSNKALPKPIEKTISKAKGQPREPQVYTLPPSREEMTKNQVSLTCLVKGFYPSDIAVEWESNGQPENNYKTTPPVLDSDGSFFLYSKLTVDKSRWQQGNVFSCSVMHEALHNHYTQKSLSLSP light: DIVMTQSPATLSLSPGERATLSCTSSQSVYHANWLSWFQQKPGQPPKLLIYWASTLAYGVPSRFSGSGSGTDFTLTISSLQPEDAATYYCAGGYGGGRYAFGQGTKVEIKRTVAAPSVFIFPPSDEQLKSGTASVVCLLNNFYPREAKVQWKVDNALQSGNSQESVTEQDSKDSTYSLSSTLTLSKADYEKHKVYACEVTHQGLSSPVTKSFNRGEC
3000 | 320 | 2300 | M103205H795-MY263/M103202L889-SK1 (antibody, human IgG1, kappa, copies: 2 + 2) heavy: QVTLKESGPVLVKPTETLTLTCTVSGIDLSHDDISWVRQAPGKGLEWVGIISYAGSTYYASWAKGRLTISKDTSKNQVVLTMTNMDPVDTATYYCARGVPAYSHGGDLWGQGTLVTVSSASTKGPSVFPLAPSSKSTSGGTAALGCLVKDYFPEPVTVSWNSGALTSGVHTFPAVLQSSGLYSLSSVVTVPSSSLGTQTYICNVNHKPSNTKVDKKVEPKSCDKTHTCPPCPAPELLQGPSVFLFPPKPKDTLMISRTPEVTCVVVDVSDEDPEVKFNWYVDGVEVHNAKTKPREEQYNSTYRVVSVLTVLHQDWLNGKEYKCKVSNKALPKPIEKTISKAKGQPREPQVYTLPPSREEMTKNQVSLTCLVKGFYPSDIAVEWESNGQPENNYKTTPPVLDSDGSFFLYSKLTVDKSRWQQGNVFSCSVMHEALHNHYTQKSLSLSP light: DIVMTQSPATLSLSPGERATLSCTSSQSVYHANWLSWFQQKPGQPPKLLIYWASTLAYGVPSRFSGSGSGTDFTLTISSLQPEDAATYYCAGGYGGGRYAFGQGTKVEIKRTVAAPSVFIFPPSDEQLKSGTASVVCLLNNFYPREAKVQWKVDNALQSGNSQESVTEQDSKDSTYSLSSTLTLSKADYEKHKVYACEVTHQGLSSPVTKSFNRGEC
